Assay results reported in patent US20150344570A1 (published 2015).
Where a chain is given by its changes, count along the chain named. In names and notes the source's numbering stands.

B1: GpH7-A5/GpH7-B3/GpL16-k0 (antibody, human IgG1, kappa)
heavy 1: not shown
heavy 2: not shown
light: DIVMTQSPLSLPVTPGEPASISCQASESLVHSNRNTYLHWYLQKPGQSPQLLIYKVSNRFSGVPDRFSGSGSGTDFTLKISRVEAEDVGVYYCSQNTHVPPTFGQGTKVEIERTVAAPSVFIFPPSDEQLKSGTASVVCLLNNFYPREAKVQWKVDNALQSGNSQESVTEQDSKDSTYSLSSTLTLSKADYEKHKVYACEVTHQGLSSPVTKSFNRGEC
notes: also called HeCon Ab; control heterodimerized antibody
B2: GpH7-TA7/GpH7-B3/GpL16-k0 (antibody, human IgG1, kappa)
heavy 1: QVQLVQSGAEVKKPGASVTVSCKASGYTFTDYEMHWIRQPPGEGLEWIGAIDPKTGDTAYSESFQDRVTLTADKSTSTAYMELSSLTSEDTAVYYCTRFYSYTYWGQGTLVTVSSASTKGPSVFPLAPSSKSTSGGTAALGCLVKDYFPEPVTVSWNSGALTSGVHTFPAVLQSSGLYSLSSVVTVPSSSLGTQTYICNVNHKPSNTKVDKKVEPKSCDKTHTCPPCPAPEYLWGPSVFLFPPKPKDTLMISRTPEVTCVVVDVSHEDPEVKFNWYVDGVEVHNAKTKPREEQYNATYRVVSVLTVLHQDWLNGKEYKCKVSNKALPAPIEKTISKAKGQPREPQVYTLPPSRKELTKNQVSLTCLVKGFYPSDIAVEWESNGQPENNYKTTPPVLDSDGSFFLYSKLTVDKSRWQQGNVFSCSVMHEALHNRYTQKSLSLSP
heavy 2: not shown
light: B1 light
notes: Anti-glypican-3 IgG1 heterodimer; L234Y/G236W/S298A in H1 only
B3: GpH7-TA7/GpH7-B12/GpL16-k0 (antibody, human IgG1, kappa)
heavy 1: B2 heavy 1
heavy 2: not shown
light: B1 light
notes: Anti-glypican-3 IgG1 heterodimer; L234Y/G236W/S298A in H1, P329R in H2
B4: GpH7-TA8/GpH7-B3/GpL16-k0 (antibody, human IgG1, kappa)
heavy 1: B2 heavy 1 with P327R
heavy 2: not shown
light: B1 light
notes: Anti-glypican-3 IgG1 heterodimer; L234Y/G236W/S298A/P329R all in H1
B5: GpH7-A5/GpH7-TA45/GpL16-k0 (antibody, human IgG1, kappa)
heavy 1: not shown
heavy 2: B2 heavy 1 with K354D, R433H, K437E
light: B1 light
notes: Anti-glypican-3 IgG1 heterodimer; L234Y/G236W/S298A in H2 only
B6: GpH7-TA7/GpH7-TA45/GpL16-k0 (antibody, human IgG1, kappa)
heavy 1: B2 heavy 1
heavy 2: B2 heavy 1 with K354D, R433H, K437E
light: B1 light
notes: Anti-glypican-3 IgG1; The two chains differ only in D356K/H435R and K439E
B7: GpH7-A5/GpH7-B3/GpL16-k0 (antibody, human IgG1, kappa)
heavy 1: not shown
heavy 2: not shown
light: B1 light
notes: as for B1
B8: GpH7-A5/GpH7-B80/GpL16-k0 (antibody, human IgG1, kappa)
heavy 1: not shown
heavy 2: not shown
light: B1 light
notes: Heterodimerized antibody with I332E in one H chain only
B9: GpH7-A44/GpH7-B3/GpL16-k0 (antibody, human IgG1, kappa)
heavy 1: B2 heavy 1 with Y232L, W234G, A296S, I330E
heavy 2: not shown
light: B1 light
notes: as for B8
B10: GpH7-A44/GpH7-B80/GpL16-k0 (antibody, human IgG1, kappa)
heavy 1: B2 heavy 1 with Y232L, W234G, A296S, I330E
heavy 2: not shown
light: B1 light
B11: GpH7-A5/GpH7-B78/GpL16-k0 (antibody, human IgG1, kappa)
heavy 1: not shown
heavy 2: B2 heavy 1 with Y232L, W234G, S237D, A296S, A328L, I330E, K354D, R433H, K437E
light: B1 light
notes: Anti-glypican-3 IgG1 heterodimer; S239D/A330L/I332E in H2 only
B12: GpH7-A57/GpH7-B78/GpL16-k0 (antibody, human IgG1, kappa)
heavy 1: B2 heavy 1 with Y232L, W234G, S237D, A296S, A328L, I330E
heavy 2: B2 heavy 1 with Y232L, W234G, S237D, A296S, A328L, I330E, K354D, R433H, K437E
light: B1 light
notes: as for B6
B13: GpH7-A53/GpH7-B78/GpL16-k0 (antibody, human IgG1, kappa)
heavy 1: B2 heavy 1 with Y232L, W234G, S237D, A296S
heavy 2: B2 heavy 1 with Y232L, W234G, S237D, A296S, A328L, I330E, K354D, R433H, K437E
light: B1 light
notes: Anti-glypican-3 IgG1 heterodimer; S239D in H1, S239D/A330L/I332E in H2
B14: GpH7-TA4/GpH7-B3-15-02A/GpL16-k0 (antibody, human IgG1, kappa)
heavy 1: B2 heavy 1 with A296S
heavy 2: not shown
light: B1 light
notes: H1 L234Y and G236W; H2 S298A
B15: GpH7-TA5/GpH7-B3-03-20W/GpL16-k0 (antibody, human IgG1, kappa)
heavy 1: B2 heavy 1 with W234G
heavy 2: not shown
light: B1 light
notes: H1 L234Y and S298A; H2 G236W
B16: GpH7-TA6/GpH7-B3-01-15Y/GpL16-k0 (antibody, human IgG1, kappa)
heavy 1: B2 heavy 1 with Y232L
heavy 2: not shown
light: B1 light
notes: H1 G236W and S298A; H2 L234Y

target: T1, FcγRIIIa (human, UniProt P08637 17-208); assay: SPR (Biacore), antibody captured on antigen-peptide chip, FcγR as analyte; relative binding amount
T1 construct: extracellular domain; also called FcgRIIIa; CD16A; not shown: His tag attached to the C terminus
Description: GpH7-TA8 (SEQ ID NO: 33) and GpH7-B12 (SEQ ID NO: 12) resulting from the introduction of P329R into GpH7-TA7 and GpH7-B3, respectively, were prepared according to the method described in Reference Example 1.
(§1) Analysis of interaction between objective antibody and the FcγR was carried out using Biacore T100 (GE Healthcare). HBS-EP+ (GE Healthcare) was used as the running buffer, and the measurement temperature was set to 25° C. Chips produced by immobilizing the antigen peptide by the amine coupling method to a Series S Sencor Chip CM5 (GE Healthcare), or alternatively, chips produced by allowing preliminarily biotinylated antigen peptides to interact with and immobilize onto a Series S Sensor Chip SA (certified) (GE Healthcare) were used. Antibodies of interest were captured onto an antigen peptide-immobilized chip, and allowed to interact to each FcγR diluted with running buffer. To regenerate and repeatedly use the chip, the antibodies captured on the chip were washed off by reacting 10 mM glycine-HCl, pH 1.5.

T1 sequence (P08637 17-208): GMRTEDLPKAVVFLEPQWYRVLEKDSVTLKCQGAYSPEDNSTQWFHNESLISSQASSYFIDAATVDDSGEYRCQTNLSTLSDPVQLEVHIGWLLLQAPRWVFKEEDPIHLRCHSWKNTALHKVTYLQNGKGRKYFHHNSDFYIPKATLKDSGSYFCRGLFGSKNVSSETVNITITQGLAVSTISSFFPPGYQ

Compared with B1, B2 is higher in “FcγRIIIa BINDING ACTIVITY (relative)” value: 100 relative, GpH7-A5/GpH7-B3/GpL16-k0 = 100 for the first, 210 relative, GpH7-A5/GpH7-B3/GpL16-k0 = 100 for the second.

Compared with B3, B4 is higher in “FcγRIIIa BINDING ACTIVITY (relative)” value: 11 relative, GpH7-A5/GpH7-B3/GpL16-k0 = 100 for the first, 150 relative, GpH7-A5/GpH7-B3/GpL16-k0 = 100 for the second.

target: T1, FcγRIIIa; assay: as above; remark: another data set of the same source
Description: Specifically, GpH7-TA7 and GpH7-TA45 (SEQ ID NO: 32) resulting from the introduction of L234Y, G236W, and S298A into GpH7-A5 and GpH7-B3, respectively, were prepared according to the method described in Reference Example 1. […] These antibodies were compared for the FcγRIIIa binding according to the method described in Reference Example 2 (Table 10).
as §1

Going from B1 to B5, the “FcγR BINDING ACTIVITY (relative FcγRIIIa binding)” value rises from 100 relative, GpH7-A5/GpH7-B3/GpL16-k0 = 100 to 225 relative, GpH7-A5/GpH7-B3/GpL16-k0 = 100.

First: B2
Second: B6
The “FcγR BINDING ACTIVITY (relative FcγRIIIa binding)” value of the first is higher: 210 relative, GpH7-A5/GpH7-B3/GpL16-k0 = 100 for the first, 48 relative, GpH7-A5/GpH7-B3/GpL16-k0 = 100 for the second.

target: T2, FcγRIIIa extracellular domain with C-terminal His tag (human, UniProt P08637 17-208); assay: SPR (Biacore), ratio of KD for FcγRIIIa against GpH7-A5/GpH7-B3/GpL16-k0
T2 construct: extracellular domain; also called FcgRIIIa; 3a; not shown: His tag attached to the C terminus
Text: Then, the present inventors introduced I332E into only one H chain, and assessed whether the Tm is elevated as compared to when I332E is introduced into both H chains. Expression vectors inserted with GpH7-A44 (SEQ ID NO: 49) and GpH7-B80 (SEQ ID NO: 50) resulting from the introduction of I332E into GpH7-A5 and GpH7-B3, respectively, were constructed. They were combined with GpH7-B3, GpH7-A5, and GpL16-k0 to express and prepare the following antibodies according to the method described in Reference Example 1: the heterodimerized antibodies GpH7-A5/GpH7-B80/GpL16-k0 and GpH7-A44/GpH7-B3/GpL16-k0 in which only one of the H chains was introduced with I332E, and the homodimerized antibody GpH7-A44/GpH7-B80/GpL16-k0 in which both of the H chains were introduced with I332E. […] Each antibody was assessed for the FcγRIIIa-binding activity according to the method described in Reference Example 2. In addition, the antibodies were compared for the Tm of CH2 domain by thermal shift assay according to the method described in Reference Example 5 (Tables 28 and 29).
as §1
The FcγR-binding activity of each antibody was assessed primarily using as an indicator the FcγR-binding activity and dissociation constant for FcγR.
T2 sequence (P08637 17-208): as above

Compared with B7, B8 is higher in KD ratio: 1 fold (KD of GpH7-A5/GpH7-B3/GpL16-k0 divided by KD of the antibody) for the first, 3.4 fold (KD of GpH7-A5/GpH7-B3/GpL16-k0 divided by KD of the antibody) for the second.

First: B9
Second: B10
The KD ratio of the first is lower: 4.4 fold (KD of GpH7-A5/GpH7-B3/GpL16-k0 divided by KD of the antibody) for the first, 7.1 fold (KD of GpH7-A5/GpH7-B3/GpL16-k0 divided by KD of the antibody) for the second.

target: T1, FcγRIIIa; assay: ratio of SPR KDs: KD of GpH7-G1d/GpL16-k0 divided by KD of this antibody
Description: (§2) The prepared antibodies were compared for the FcγRIIIa-binding activity using, as an indicator, KD for FcγRIIIa that was determined according to the method described in Reference Example 2.
as §1
(§3) Specifically, to calculate association rate constant ka (L/mol/s) and dissociation rate constant kd (1/s), sensorgrams obtained by measurement were processed for global fitting by Biacore Evaluation Software using 1:1 Langmuir binding model and dissociation constant KD (mol/1) was calculated from the resulting values.

First: B1
Second: B11
The “KD ratio 1” value of the first is lower: 0.75 fold for the first, 23 fold for the second.

Compared with B12, B2 is lower in “KD ratio 1” value: 199 fold for the first, 3.8 fold for the second.

In the case of B6, the “KD ratio 1” value is reported as 0.37 fold.

target: T1, FcγRIIIa; assay: ratio of SPR KDs: KD of GpH7-A5/GpH7-B78/GpL16-k0 divided by KD of this antibody
Description: To assess this hypothesis, GpH7-A53 (SEQ ID NO: 42) resulting from the introduction of S239D into GpH7-A5 was constructed, and, this is combined with GpH7-B78 introduced with S239D, A330L, and I332E, and the expression and preparation were performed according to the method described in Reference Example 1. The effect of the combination of S239D and S239D, A330L, and I332E was assessed by comparing the FcγRIIIa binding between the heterodimerized and homodimerized antibodies with S239D, A330L, and I332E according to the method described in Reference Example 2 (Table 14).
as §1, §3

First: B11
Second: B13
The KD ratio of the first is lower: 1 fold for the first, 4.9 fold for the second.

B12 was tested, and the KD ratio was 8.7 fold.

target: FcγRIIIa extracellular domain with C-terminal His tag (human, UniProt P08637 17-208); assay: SPR (Biacore), relative binding activity; GpH7-A5/GpH7-B3/GpL16-k0 = 100
Target sequence in this assay (P08637 17-208): as above

Compared with B14, B15 is lower in “FcγRIIIa BINDING ACTIVITY” value: 151% for the first, 97% for the second.

B16 was tested, and the “FcγRIIIa BINDING ACTIVITY” value was 103%.

target: T1, FcγRIIIa; assay: ratio of SPR KDs: KD of GpH7-A5/GpH7-B3/GpL16-k0 divided by KD of this antibody
Description: as §2, §1, §3

Compared with B1, B11 is higher in “KD ratio 2” value: 1 fold for the first, 30 fold for the second.

First: B12
Second: B2
The “KD ratio 2” value of the first is higher: 263 fold for the first, 5.1 fold for the second.

In the case of B6, the “KD ratio 2” value is reported as 0.49 fold.
